Data on one molecule can be found in US11427805B2, “Methods of producing human foregut endoderm cells expressing PDX1 from human definitive endoderm” (ViaCyte, Inc., priority 2005, dated 2022).

Holding throughout (assay type): cell-based, human
Experiment [1] has as its system hESCs. The experiment is described as follows: Antibody labeling (immunocytochemistry) of differentiating hESCs for SOX17 and AFP. An excerpt: However, AFP and SOX7 are not expressed in definitive endoderm cells at levels detectable by ICC, and thus, they can be employed as negative markers for bonifide definitive endoderm cells. It was shown that SOX17 antibody labels populations of cells that exist as discrete groupings of cells or are intermingled with AFP positive cells. […] Similarly, since parietal endoderm has been reported to express SOX17, antibody co-labeling with SOX17 together with the parietal markers SPARC and/or Thrombomodulin (TM) can be used to identify the SOX17^+ cells that are parietal endoderm. As shown in FIGS. 6A-C, Thrombomodulin and SOX17 co-labeled parietal endoderm cells were produced by random differentiation of hES cells.
With the SOX17 antibody and Q-PCR tools described above we have explored a number of procedures capable of efficiently programming hESCs to become SOX17^hi/AFP^lo/SPARC/TM^lo definitive endoderm cells. We applied a variety of differentiation protocols aimed at increasing the number and proliferative capacity of these cells as measured at the population level by Q-PCR for SOX17 gene expression and at the level of individual cells by antibody labeling of SOX17 protein.
To determine the effect of TGFβ factor treatment at the individual cell level, a time course of TGFβ factor addition was examined using SOX17 antibody labeling. […]

The test system of experiment [2] is hESCs. The experiment is described as follows: AFP antibody-labeled cell number by flow cytometry. Particulars: FIGS. 9A-B. An excerpt:
As a further evidence of the specificity of the SOX17^hi/AFP^lo/TM^lo/SPARC^lo marker profile as predictive of definitive endoderm, SOX17 and AFP gene expression was quantitatively compared to the relative number of antibody labeled cells.

In the next experiment the test system is definitive endoderm. Kind of experiment: Dorsal / ventral / PDX1-negative foregut endoderm differentiation from definitive endoderm (marker gene expression). To be noted: first four days of differentiation (FIGS. 51A, 51B).
Another experiment concerns SOX17 gene expression. Kind of experiment: Q-PCR of SOX17 gene expression in differentiating hESCs. The method, then: (§1) In the following experiments, real-time quantitative RT-PCR (Q-PCR) was the primary assay used for screening the effects of various treatments on hESC differentiation. In particular, real-time measurements of gene expression were analyzed for multiple marker genes at multiple time points by Q-PCR. Marker genes characteristic of the desired as well as undesired cell types were evaluated to gain a better understanding of the overall dynamics of the cellular populations. The strength of Q-PCR analysis includes its extreme sensitivity and relative ease of developing the necessary markers, as the genome sequence is readily available. Furthermore, the extremely high sensitivity of Q-PCR permits detection of gene expression from a relatively small number of cells within a much larger population. In addition, the ability to detect very low levels of gene expression provides indications for “differentiation bias” within the population. The bias towards a particular differentiation pathway, prior to the overt differentiation of those cellular phenotypes, is unrecognizable using immunocytochemical techniques. […] Additionally, Q-PCR provides a mechanism by which to evaluate the success of a differentiation protocol in a quantitative format at semi-high throughput scales of analysis.
The approach taken here was to perform relative quantitation using SYBR Green chemistry on a Rotor Gene 3000 instrument (Corbett Research) and a two-step RT-PCR format. Such an approach allowed for the banking of cDNA samples for analysis of additional marker genes in the future, thus avoiding variability in the reverse transcription efficiency between samples.
(§2) To generate PCR template, total RNA was isolated using RNeasy (Qiagen) and quantitated using RiboGreen (Molecular Probes). Reverse transcription from 350-500 ng of total RNA was carried out using the iScript reverse transcriptase kit (BioRad), which contains a mix of oligo-dT and random primers. Each 20 μL reaction was subsequently diluted up to 100 μL total volume and 3 μL was used in each 10 μL Q-PCR reaction containing 400 nM forward and reverse primers and 5 μL 2×SYBR Green master mix (Qiagen). Two step cycling parameters were used employing a 5 second denature at 85-94° C. (specifically selected according to the melting temp of the amplicon for each primer set) followed by a 45 second anneal/extend at 60° C. Fluorescence data was collected during the last 15 seconds of each extension phase. A three point, 10-fold dilution series was used to generate the standard curve for each run and cycle thresholds (Ct's) were converted to quantitative values based on this standard curve. The quantitated values for each sample were normalized to housekeeping gene performance and then average and standard deviations were calculated for triplicate samples. At the conclusion of PCR cycling, a melt curve analysis was performed to ascertain the specificity of the reaction. A single specific product was indicated by a single peak at the Tm appropriate for that PCR amplicon.
A first step in establishing the Q-PCR methodology was validation of appropriate housekeeping genes (HGs) in the experimental system. […] We measured the expression levels of Cyclophilin G, hypoxanthine phosphoribosyltransferase 1 (HPRT), beta-2-microglobulin, hydroxymethylbiane synthase (HMBS), TATA-binding protein (TBP), and glucoronidase beta (GUS) in differentiating hESCs. […] We routinely used both Cyclophilin G and GUS to calculate a normalization factor for all samples. The use of multiple HGs simultaneously reduces the variability inherent to the normalization process and increases the reliability of the relative gene expression values.
We were the first to analyze and describe the effect of TGFβ family growth factors, such as Nodal/activin/BMP, for use in creating definitive endoderm cells from embryonic stem cells in in vitro cell cultures. […]

Another experiment deals with AFP gene expression. Kind of experiment: Q-PCR of AFP gene expression in differentiating hESCs. The procedure: as §1
To generate PCR template, total RNA was isolated using RNeasy (Qiagen) and quantitated using RiboGreen (Molecular Probes). Reverse transcription from 350-500 ng of total RNA was carried out using the iScript reverse transcriptase kit (BioRad), which contains a mix of oligo-dT and random primers. […] Fluorescence data was collected during the last 15 seconds of each extension phase. A three point, 10-fold dilution series was used to generate the standard curve for each run and cycle thresholds (Ct's) were converted to quantitative values based on this standard curve. The quantitated values for each sample were normalized to housekeeping gene performance and then average and standard deviations were calculated for triplicate samples. […]

Experiment [3] relates to hESCs. Kind of experiment: Q-PCR of germ layer marker genes (MIXL1, GATA4, HNF3b, SOX7, SPARC, ZIC1, Brachyury) in differentiating hESCs.
Source text: We routinely used Q-PCR to measure the gene expression of multiple markers of target and non-target cell types in order to provide a broad profile description of gene expression in cell samples. The markers relevant for the early phases of hESC differentiation (specifically ectoderm, mesoderm, definitive endoderm and extra-embryonic endoderm) and for which validated primer sets are available are provided below in Table 1. […] This is an important fact since the hESCs were often grown on mouse feeder layers. Most typically, triplicate samples were taken for each condition and independently analyzed in duplicate to assess the biological variability associated with each quantitative determination.
as §2
Definitive endoderm cells were predicted to express high levels of SOX17 mRNA and low levels of AFP and SOX7 (visceral endoderm), SPARC (parietal endoderm) and Brachyury (mesoderm). In addition, ZIC1 was used here to further rule out induction of early ectoderm. Finally, GATA4 and HNF3b were expressed in both definitive and extra-embryonic endoderm, and thus, correlate with SOX17 expression in definitive endoderm (Table 1).

Method for definitive endoderm: Definitive endoderm was produced from undifferentiated hESCs using a three or five day protocol in which activin A was provided to the culture medium at a concentration of 100 ng/ml each day. For both dorsal and ventral differentiation, the medium composition for the first five days was as follows: Day 1—RPMI+0% fetal bovine serum (FBS), Day 2—RPMI+0.2% PBS, Day 3—RPMI+2.0% FBS, Day 4—RPMI+2.0% FBS and Day 5—RPMI+2.0% FBS. For the ventral differentiation, definitive endoderm was produced for 3 days in activin A at 100 ng/ml and then exposed to BMP4 at 3 ng/ml and FGF10 at 50 ng/ml. […] For the dorsal differentiation procedure, definitive endoderm was produced for 5 days in activin A at 100 ng/ml and then exposed to retinoic acid (RA) at 2 μM and activin A at 25 ng/ml in CMRL medium containing B27 supplement (1:200).
Four separate conditions were used to treat hESCs that result in varying proportions of differentiation to definitive endoderm. All four conditions utilized RPMI supplemented with 0% FBS on the first day, 0.2% FBS on second day, and 2% FBS on days 3 and 4. The four conditions were as follows: (a) BMP4 at 100 ng/mL with SU5402 at 5 μM; (b) no exogenous growth factors; (c) activin A at 15 ng/mL; and (d) activin A at 100 ng/ml. […] All cultures were then incubated for 2 days with BMP4 at 3 ng/mL, FGF10 at 50 ng/ml and KAAD-cyclopamine at 0.5 μM in a base medium of 2% FBS in RPMI followed by 6 days with BMP4 at 3 ng/mL, FGF10 at 50 ng/ml and KAAD-cyclopamine at 0.5 μM in a base medium composed of CMRL with 1:200 dilution of B27 extract.
Definitive endoderm was produced by exposing undifferentiated hESCs to activin at 100 ng/mL in RPMI base medium supplemented with 0%, 0.2%, and 2% FBS on days 1 through 3, respectively. After 3 days of activin A treatment, the cultures were switched to a base medium composed of RPMI containing 2% FBS and maintained under one of the following conditions: (a) BMP4 at 3 ng/ml with FGF10 at 50 ng/ml and KAAD-cyclopamine at 0.5 μM; (b) FGF10 at 50 ng/ml and KAAD-cyclopamine at 0.5 μM; or (c-e) no exogenous factors. After two days, the base medium was changed to CMRL plus B27 supplement (1:200) and cells were maintained according to conditions (a-c) above. Alternatively, cells were maintained with no exogenous factors in RPMI with B27 supplement (1:200) (condition (d)) or RPMI with 2% FBS (condition (e)). The same factor treatment conditions were maintained for 8 more days of differentiation.
Human embryonic stem cells were differentiated for 7 days via a 2-step protocol to achieve PDX1 cells. The first step comprised 5 days differentiation in activin A (100 ng/ml) to robustly produce DE (D'Amour, K., et al., Nature Biotechnology 23, 1534-1541, (2005)). […]

B1: activin A (protein, UniProt P08476 311-426, looked up)
Inhibin beta A chain: GLECDGKVNICCKKQFFVSFKDIGWNDWIIAPSGYHANYCEGECPSHIAGTSGSSLSFHSTVINHYRMRGHSPFANLKSCCVPTKLRPMSMLYYDDGQNIIKKDIQNMIVEECGCS
modifications: Inhibin beta A chain
Turning to B1, the “dose dependence of SOX17+ cell number” value in the experiment on hESCs [1] (FIG. 22) is “dose-dependent increase”. The “difference in SOX17 antibody-labeled cell number” value with hESCs [1] (hESCs treated with activin A vs retinoic acid (FIG. 7B)) amounted to 10 fold. Moreover, the “decrease in AFP antibody-labeled cell number as measured by flow cytometry” value in the experiment with hESCs [2] is “approximately 7 fold”. The “definitive endoderm production (CER and SOX17 gene expression)” value in the experiment on definitive endoderm is reported as “robust definitive endoderm differentiation”. Also, the “dose dependence of SOX17 gene expression” value in the experiment with SOX17 gene expression (0, 10, 30 or 100 ng/ml (FIG. 11)) is on record as “dose-dependently increases SOX17 gene expression”. Also, the “SOX17 induction compared to no factor medium controls” value with SOX17 gene expression (4-day time point) amounted to 5 fold. For the same molecule, in the experiment with SOX17 gene expression (FIG. 7A), the “SOX17 gene expression relative to the undifferentiated control media (SR20)” value is “increases SOX17 gene expression”. Also, the “induction of SOX17 gene expression vs. undifferentiated hESCs” value in the experiment with SOX17 gene expression (day 4 of differentiation / four days of exposure, activin A at 100 ng/ml, 10% serum medium (FIGS. 19, 21)) was 19 fold. Also, the “difference in the level of SOX17 mRNA expression” value in the experiment with SOX17 gene expression (hESCs treated with activin A vs retinoic acid (FIG. 7A)) was 10 fold. Further, the “suppression of AFP gene expression in comparison to no treatment” value in the experiment on AFP gene expression (FIG. 8A) came out at 6.8 fold. Also, in the experiment on AFP gene expression (FIG. 8A legend), the “difference in AFP gene expression levels, activin A vs random differentiation in 10% FBS” value is given as “approximately 7 fold”. Moreover, the “expression of the visceral endoderm marker AFP” value in the experiment on AFP gene expression (activin A dose series (FIG. 13A)) is given as “dose-dependent decrease”. The “mesoderm differentiation (brachyury expression)” value with hESCs [3] (100 ng/ml (FIG. 14B)) is reported as “notable suppression”. Further, the “effect on neural differentiation (ZIC1 expression)” value in the experiment with hESCs [3] (activin A dose series (FIG. 14A)) is listed as “not a dose-dependent effect”. The “expression of definitive endoderm markers MIXL1, GATA4 and HNF3b” value in the experiment on hESCs [3] (activin A dose series (FIGS. 12A-C)) is “dose-dependent increases”. In addition, in the experiment with hESCs [3] (activin A dose series (FIGS. 13B-C)), the “expression of primitive endoderm (SOX7) and parietal endoderm (SPARC) markers” value is “remain either unchanged or exhibit suppression at some time points”.
